Data taken from patent US20230151082A1.

B1: MSLN34 phage clone (scFv displayed on phage, KBIO human synthetic scFv phage display library KscFv-I) (scFv, not shown: large carriers; small tags and cut ends)
scFv: EVQLVESGGGLVQPGGSLRLSCAASGFTFSDYGMHWVRQAPGKGLEWVSSIYGSGGHTGYADSVKGRFTISRDNSKNTLYLQMNSLRAEDTAVYYCAKQHAYRYSYAFDVWGQGTLVTVSSGGGGSGGGGSGGGGSDIQMTQSPSSLSASVGDRVTITCRASQSISNWLNWYQQKPGKAPKLLIYATSSLQSGVPSRFSGSGSGTDFTLTISSLQPEDFATYYCQQSYSFPFTFGQGTKVEIK
modifications: displayed on M13 phage
B2: anti-MSLN-scFv antibody MSLN34 (purified scFv from E. coli periplasm) (scFv, not shown: small tags and cut ends)
scFv: B1 scFv
B3: MSLN37 phage clone (scFv displayed on phage, KBIO human synthetic scFv phage display library KscFv-I) (scFv, V domains shown)
VH: EVQLVESGGGLVQPGGSLRLSCAASGFTFSSYAMHWVRQAPGKGLEWVSGISGSGGTTYYADSVKGRFTISRDNSKNTLYLQMNSLRAEDTAVYYCAKEVEGQSQEYFDIWGQGTLVTVSS
VL: DIQMTQSPSSLSASVGDRVTITCRASQSIANYLNWYQQKPGKAPKLLIYAASNLQSGVPSRFSGSGSGTDFTLTISSLQPEDFATYYCQQSYSFPYTFGQGTKVEIK

Legend:
[1] = biological target: mesothelin present on the cell membrane of mesothelin-expressing cancer cell lines (AsPC-1; OVCAR-3; NCI-H2052) (human) (UniProt Q13421); assay: flow cytometry, phage clone on AsPC-1 cells, anti-M13-FITC
[2] = biological target: mesothelin present on the cell membrane of mesothelin-expressing cancer cell lines (AsPC-1; OVCAR-3; NCI-H2052) (human) (UniProt Q13421); assay: flow cytometry, phage clone on AsPC-1 cells against control K562 cells
[3] = biological target: human mesothelin protein (MSLN, Acro Biosystems), conjugated to a histidine tag (human) (UniProt Q13421); assay: ELISA, purified scFv on coated human mesothelin protein (1 ug/mL), anti-StrepMAB HRP

Row | Binder | relative peak shift value [1] [%] | relative peak shift value [2] [%] | EC50 [3] [nM]
1 | B1 | > 5 | 16.2 | –
2 | B2 | – | – | 83
3 | B3 | > 5 | 5.9 | –
